This passage reports EC50 results from patent publication US20260217795A1 (NANJING GENSCRIPT BIOTECH, published 2026).

Experiment in all cases: indirect ELISA, VLP coated at 1 ug/mL, antibody in 3-fold dilutions from 1 ug/mL
On the technique in general: ELISA stands for enzyme-linked immunosorbent assay.

Assay [1] addresses T1, AAVDJ virus-like particle (VLP) (adeno-associated virus DJ).
T1 construct: VLP self-assembled from VP1, VP2 and VP3 expressed in 293T cells; coated on ELISA plates; also called VLP of AAVDJ

The target in assay [2] is T2, AAV8 virus-like particle (VLP) (adeno-associated virus 8).
T2 construct: VLP self-assembled from VP1, VP2 and VP3 expressed in 293T cells; coated on ELISA plates; also called VLP of AAV8
T2 VP1: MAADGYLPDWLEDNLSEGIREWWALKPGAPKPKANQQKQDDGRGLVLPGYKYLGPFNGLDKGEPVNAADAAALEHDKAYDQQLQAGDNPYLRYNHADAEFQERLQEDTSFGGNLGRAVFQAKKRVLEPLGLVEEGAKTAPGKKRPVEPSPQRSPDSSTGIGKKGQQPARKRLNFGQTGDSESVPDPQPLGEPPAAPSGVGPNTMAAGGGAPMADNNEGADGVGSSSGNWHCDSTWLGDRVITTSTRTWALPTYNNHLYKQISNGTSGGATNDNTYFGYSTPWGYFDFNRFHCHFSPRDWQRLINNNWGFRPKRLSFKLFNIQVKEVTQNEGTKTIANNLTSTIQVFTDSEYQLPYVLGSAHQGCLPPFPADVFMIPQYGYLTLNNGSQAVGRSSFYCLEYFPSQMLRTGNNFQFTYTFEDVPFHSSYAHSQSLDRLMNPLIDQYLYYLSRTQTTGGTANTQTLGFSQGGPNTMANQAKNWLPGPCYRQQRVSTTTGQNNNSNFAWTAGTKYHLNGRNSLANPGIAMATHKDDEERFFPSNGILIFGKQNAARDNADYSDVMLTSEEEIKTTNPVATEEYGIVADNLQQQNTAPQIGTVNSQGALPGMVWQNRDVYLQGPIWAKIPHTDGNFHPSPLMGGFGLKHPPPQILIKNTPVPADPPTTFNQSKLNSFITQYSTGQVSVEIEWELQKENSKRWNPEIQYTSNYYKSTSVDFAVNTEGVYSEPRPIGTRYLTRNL

Assay [3] concerns the target T3, AAV2 virus-like particle (VLP) (adeno-associated virus 2, UniProt P03135 1-735; P03135 1-598; P03135 1-533).
T3 construct: VLP self-assembled from VP1, VP2 and VP3 expressed in 293T cells; coated on ELISA plates; also called VLP of AAV2

Assay [4] addresses T4, AAV1 virus-like particle (VLP) (adeno-associated virus 1).
T4 construct: VLP self-assembled from VP1, VP2 and VP3 expressed in 293T cells; coated on ELISA plates; also called VLP of AAV1

Assay [5] deals with T5, AAV6 virus-like particle (VLP) (adeno-associated virus 6).
T5 construct: VLP self-assembled from VP1, VP2 and VP3 expressed in 293T cells; coated on ELISA plates; also called VLP of AAV6

In assay [6] the target is T6, recombinant rh.1-type AAV virus-like particles (AAVrh.1 VLP) (adeno-associated virus rh.1 (isolated …)).
T6 construct: The immunogen; VLP self-assembled from VP1, VP2 and VP3 expressed in 293T cells; coated on ELISA plates; also called rh.1-serotype AAV
T6 chain 1: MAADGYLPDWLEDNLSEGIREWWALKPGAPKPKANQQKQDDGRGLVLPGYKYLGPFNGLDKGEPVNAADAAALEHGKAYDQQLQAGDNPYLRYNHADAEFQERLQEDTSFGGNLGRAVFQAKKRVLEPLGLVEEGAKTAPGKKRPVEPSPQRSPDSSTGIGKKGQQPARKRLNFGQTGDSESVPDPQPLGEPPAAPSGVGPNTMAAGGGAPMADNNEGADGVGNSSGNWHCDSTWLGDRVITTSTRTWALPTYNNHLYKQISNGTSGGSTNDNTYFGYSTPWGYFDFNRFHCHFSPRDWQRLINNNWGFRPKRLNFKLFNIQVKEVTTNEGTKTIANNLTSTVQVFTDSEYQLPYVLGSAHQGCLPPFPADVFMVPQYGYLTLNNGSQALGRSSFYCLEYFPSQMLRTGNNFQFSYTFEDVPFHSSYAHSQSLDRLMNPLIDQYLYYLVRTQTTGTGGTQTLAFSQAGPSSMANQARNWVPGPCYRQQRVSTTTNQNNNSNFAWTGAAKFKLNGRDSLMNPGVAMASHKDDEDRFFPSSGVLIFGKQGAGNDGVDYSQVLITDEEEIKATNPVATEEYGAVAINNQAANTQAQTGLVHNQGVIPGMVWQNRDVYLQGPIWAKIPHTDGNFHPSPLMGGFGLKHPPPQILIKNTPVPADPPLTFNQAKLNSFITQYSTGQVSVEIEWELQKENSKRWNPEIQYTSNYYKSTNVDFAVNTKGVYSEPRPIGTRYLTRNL
T6 chain 2: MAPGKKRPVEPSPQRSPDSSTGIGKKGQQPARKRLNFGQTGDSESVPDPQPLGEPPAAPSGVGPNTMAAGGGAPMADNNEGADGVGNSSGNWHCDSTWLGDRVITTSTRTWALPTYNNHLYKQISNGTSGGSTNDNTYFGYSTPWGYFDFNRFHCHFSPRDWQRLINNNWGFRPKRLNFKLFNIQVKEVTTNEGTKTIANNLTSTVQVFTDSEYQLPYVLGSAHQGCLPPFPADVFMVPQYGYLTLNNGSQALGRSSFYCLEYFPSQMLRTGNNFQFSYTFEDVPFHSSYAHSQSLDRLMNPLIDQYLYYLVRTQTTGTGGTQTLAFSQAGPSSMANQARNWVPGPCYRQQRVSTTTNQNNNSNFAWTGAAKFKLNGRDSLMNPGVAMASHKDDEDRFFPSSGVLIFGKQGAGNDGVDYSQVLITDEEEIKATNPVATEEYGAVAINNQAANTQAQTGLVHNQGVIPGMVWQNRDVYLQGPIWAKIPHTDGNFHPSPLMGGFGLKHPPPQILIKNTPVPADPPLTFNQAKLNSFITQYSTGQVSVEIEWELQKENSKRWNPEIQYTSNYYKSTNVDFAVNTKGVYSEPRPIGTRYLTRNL
T6 chain 3: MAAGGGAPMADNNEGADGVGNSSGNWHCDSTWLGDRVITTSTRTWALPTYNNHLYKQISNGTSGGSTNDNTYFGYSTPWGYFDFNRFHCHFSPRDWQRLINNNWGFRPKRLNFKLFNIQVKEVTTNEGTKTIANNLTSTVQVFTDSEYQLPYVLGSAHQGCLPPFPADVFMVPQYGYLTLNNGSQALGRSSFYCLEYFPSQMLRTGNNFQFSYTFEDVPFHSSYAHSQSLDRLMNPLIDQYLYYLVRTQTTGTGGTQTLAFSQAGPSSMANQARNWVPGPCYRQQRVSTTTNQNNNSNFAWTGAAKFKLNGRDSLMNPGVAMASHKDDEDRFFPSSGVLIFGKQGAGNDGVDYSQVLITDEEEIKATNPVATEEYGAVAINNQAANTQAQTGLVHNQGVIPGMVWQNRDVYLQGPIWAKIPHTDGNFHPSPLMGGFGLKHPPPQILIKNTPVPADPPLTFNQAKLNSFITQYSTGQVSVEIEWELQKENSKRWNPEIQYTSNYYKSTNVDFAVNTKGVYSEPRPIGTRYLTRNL

Assay [7] concerns the target T7, AAV5 virus-like particle (VLP) (adeno-associated virus 5).
T7 construct: VLP self-assembled from VP1, VP2 and VP3 expressed in 293T cells; coated on ELISA plates; also called VLP of AAV5

In assay [8] the target is T8, AAV9 virus-like particle (VLP) (adeno-associated virus 9).
T8 construct: VLP self-assembled from VP1, VP2 and VP3 expressed in 293T cells; coated on ELISA plates; also called VLP of AAV9

B1: 5G4-1 monoclonal antibody (antibody, V domains shown)
VH: QSVKESEGGLFKPADTLSLTCTVSGFSLNNNDMSWVRQAPGNGLEYIGVMSSGGRLYAATWAKSRFTITRNTNLGTVTLKLTSLTAADTATYFCARGSPSSNRGIDIWGPGTLVTVSS
VL: LTQTPSSVSAPVGGTVSINCQSDKSVYADNYLSWYQQTPGQPPKLLIYKASTLASGIPSRFKGSGSGTQFTLAISDVQCDDAATYYCAGGYSGNSDNGFGGGTEVVVR
notes: Rabbit monoclonal antibody, made recombinantly in ExpiCHO-S cells, purified on protein A as IgG and detected with anti-rabbit IgG (Fc-specific); also called clone 5G4-1
As for B1, the EC50 (in general, the midpoint of the concentration-response curve) was determined as 1.12 ng/mL in assay [1]; 1 ng/mL in assay [2]; 0.94 ng/mL in assay [3]; 1.03 ng/mL in assay [4]; 0.64 ng/mL in assay [5]; 0.51 ng/mL in assay [6]. The figures for the EC50 in assay [7] and in assay [8] were 1.16 ng/mL and 0.64 ng/mL, respectively.

B2: 24F7-1 monoclonal antibody (antibody, V domains shown)
VH: QSLRESEGGLFKPADTLTLTCTVSGFSITAYNVGWVRQAPGKGLEWIGVIDISGATFYATWAKSRSTITRDTSLNTVTLKMTSLTAADTATYFCTRDPAFIWGPGTLVTVSS
VL: DVVMTQTPASVEAAVGGTVTIKCQASQSVSSYLAWYQQKPGQPPKLLIYRASTLASGVPSRFKGSGSGTEFTLTISDLECADAATYYCQSYVYSNVLTYFNAFGGGTGVVVK
notes: Rabbit monoclonal antibody, made recombinantly in ExpiCHO-S cells, purified on protein A as IgG and detected with anti-rabbit IgG (Fc-specific); also called clone 24F7-1
With B2, the EC50 in assay [1] was found to be 0.5 ng/mL; in assay [3] it was 0.51 ng/mL; in assay [4] it was 0.79 ng/mL; in assay [5], 0.61 ng/mL; in assay [6], 0.93 ng/mL.
